According to publication PMC12164958:

Key:
[1] = target: MBP-tagged UBR7; assay: MBP pull-down, quantified band intensity, bar chart of three replicates; conditions: parent: est. 1.0; read off a plot
[2] = target: MBP-tagged UBR7; assay: MBP pull-down (blot Anti-His), band intensity; conditions: parent: 1.00
[3] = target: UBR7-nLuc; assay: LCI assay (luciferase complementation imaging) in N. benthamiana leaves; conditions: Luminescence signals were recorded at 48 hpi; parent: est. 1.0; read off a plot
[4] = target: UBR7 (construct of the Co-IP assays); assay: Co-IP (IP: Anti-Flag, blot Anti-HA), band intensity; conditions: parent: 1.00
[5] = target: UBR7 (construct of the Co-IP assays); assay: Co-IP (IP: Anti-Flag), quantified band intensity, bar chart of three replicates; conditions: parent: est. 1.0; read off a plot

Row | ratio to parent [1] | ratio to parent [2] | ratio to parent [3] | ratio to parent [4] | ratio to parent [5] | Substance
1 | 0.72 | 0.95 | – | – | – | His-tagged AL7 S174A
2 | – | – | 0.98 | – | – | cLuc-AL7 S174A
3 | – | – | – | 1.63 | 1.9 | AL7-3×Flag S174D
4 | – | – | 1.6 | – | – | cLuc-AL7 S174D
5 | – | – | – | 0.55 | 0.6 | AL7-3×Flag S174A
6 | 3.1 | 3.18 | – | – | – | His-tagged AL7 S174D
